In paper PMC4207781:

Target: Fc gamma receptor IIb (FcγRIIb) on GM-CSF macrophages (human (endogenous in monocyte-derived macrophages)) (UniProt P31994)
Sequence of UniProt P31994 (P31994 43-217): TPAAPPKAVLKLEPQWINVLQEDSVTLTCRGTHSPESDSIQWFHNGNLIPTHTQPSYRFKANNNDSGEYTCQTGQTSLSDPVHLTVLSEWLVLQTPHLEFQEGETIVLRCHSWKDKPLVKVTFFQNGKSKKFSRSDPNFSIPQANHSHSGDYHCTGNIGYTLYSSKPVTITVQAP

- reduction of TNFα release by gmMφ co-cultured 1:5 with cytokine activated T cells (Tck) for 20 h, with ICs (50 µg/ml): 50%
Substance: heat-aggregated immune complexes (IC) of human IgG
